In the supplement of paper PMC9876800:

Tested on: peptide library, one residue held at a place counted from the S/T acceptor
Test: relative phosphorylation of the sub-library (ratio to the mean residue at this position); higher = residue favoured
In short: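 Each biotinylated degenerate peptide sub-library fixed one residue at one position around a central Ser/Thr and was incubated with a purified recombinant kinase, a human or orthologue construct, in 384-well plates. The 90 min reactions, under kinase-specific conditions, contained 50 μM peptide and 50 μM ATP spiked with γ-32P-ATP. Phosphorylation was read by phosphorimaging spots on streptavidin membranes and quantifying them by densitometry. Relative sub-library phosphorylation expresses each value as a ratio to the mean residue at that position.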

Chain of STK16, construct: Full length, human (O75716 whole entry, looked up): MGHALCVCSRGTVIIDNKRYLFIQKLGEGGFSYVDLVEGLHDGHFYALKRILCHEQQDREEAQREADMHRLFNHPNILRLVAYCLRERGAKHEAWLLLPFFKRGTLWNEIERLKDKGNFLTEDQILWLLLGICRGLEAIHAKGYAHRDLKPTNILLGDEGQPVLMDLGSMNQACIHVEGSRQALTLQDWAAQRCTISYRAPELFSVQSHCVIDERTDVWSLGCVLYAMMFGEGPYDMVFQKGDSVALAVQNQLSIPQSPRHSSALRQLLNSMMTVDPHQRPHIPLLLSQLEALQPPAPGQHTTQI
Chain of GRK3, construct: Full length, human (P35626 whole entry, looked up): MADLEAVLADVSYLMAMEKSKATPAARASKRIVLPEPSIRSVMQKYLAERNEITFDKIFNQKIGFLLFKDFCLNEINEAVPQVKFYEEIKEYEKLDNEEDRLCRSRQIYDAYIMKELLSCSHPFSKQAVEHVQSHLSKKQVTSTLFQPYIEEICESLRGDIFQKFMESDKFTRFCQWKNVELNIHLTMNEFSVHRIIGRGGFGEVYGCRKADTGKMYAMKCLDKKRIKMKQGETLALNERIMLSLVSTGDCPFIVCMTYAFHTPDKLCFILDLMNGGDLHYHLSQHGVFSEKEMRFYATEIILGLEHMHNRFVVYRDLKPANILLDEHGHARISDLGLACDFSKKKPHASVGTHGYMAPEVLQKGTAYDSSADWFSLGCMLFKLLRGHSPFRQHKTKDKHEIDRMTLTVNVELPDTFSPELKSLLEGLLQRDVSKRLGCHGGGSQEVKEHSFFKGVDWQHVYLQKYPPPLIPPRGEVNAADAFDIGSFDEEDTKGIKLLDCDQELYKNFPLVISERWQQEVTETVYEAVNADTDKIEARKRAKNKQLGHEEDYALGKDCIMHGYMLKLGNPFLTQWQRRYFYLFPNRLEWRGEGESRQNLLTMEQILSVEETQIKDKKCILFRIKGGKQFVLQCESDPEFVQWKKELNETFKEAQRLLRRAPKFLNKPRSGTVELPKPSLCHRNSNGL

GRK3, construct: Full length, human (from UniProt P35626)
relative phosphorylation
Details | at +1 | at +2 | at +3 | at +4 | at -1 | at -2 | at -3 | at -4 | at -5
A fixed | 0.782 | 1.39 | 0.849 | 0.868 | 0.913 | 0.745 | 0.971 | 1 | 1.03
D fixed | 1.07 | 0.888 | 1.9 | 1.5 | 1.25 | 1.53 | 2.52 | 1.73 | 1.39
E fixed | 1.75 | 0.887 | 1.99 | 1.36 | 1.62 | 4.07 | 3.01 | 1.78 | 1.2
F fixed | 1.36 | 1.18 | 0.882 | 0.855 | 0.914 | 0.895 | 0.666 | 0.868 | 1.1
G fixed | 0.857 | 0.967 | 1.04 | 1 | 0.703 | 0.784 | 0.822 | 0.962 | 0.9
H fixed | 0.973 | 1.22 | 1.03 | 1.06 | 1.06 | 0.755 | 0.631 | 0.892 | 0.929
I fixed | 1.27 | 1.44 | 0.933 | 1.1 | 0.913 | 0.573 | 0.649 | 0.855 | 1.06
K fixed | 0.51 | 0.51 | 0.614 | 0.725 | 0.658 | 0.59 | 0.629 | 0.843 | 0.824
L fixed | 0.766 | 0.705 | 0.898 | 0.829 | 0.979 | 0.688 | 0.604 | 0.844 | 1.03
M fixed | 1.24 | 0.904 | 0.979 | 0.994 | 1.05 | 0.746 | 0.68 | 1 | 0.964
N fixed | 0.742 | 0.874 | 0.922 | 1.03 | 1.02 | 0.854 | 0.845 | 0.932 | 0.946
P fixed | 0.477 | 0.495 | 0.638 | 1.01 | 1.4 | 0.833 | 0.907 | 0.974 | 0.788
Q fixed | 1.03 | 0.781 | 0.712 | 0.877 | 0.843 | 0.733 | 0.663 | 0.83 | 0.758
R fixed | 0.646 | 0.614 | 0.631 | 0.709 | 0.819 | 1.13 | 1.6 | 1.1 | 0.933
V fixed | 1.55 | 1.71 | 0.862 | 0.843 | 1.15 | 0.612 | 0.603 | 0.729 | 0.893
W fixed | 0.93 | 0.948 | 0.922 | 1.25 | 0.595 | 0.657 | 0.592 | 0.815 | 1.02
Y fixed | 1.03 | 1.48 | 1.2 | 0.992 | 1.12 | 0.794 | 0.605 | 0.847 | 1.23
pThr fixed | 7.07 | 1.13 | 1.13 | 2.86 | 1.38 | 5.37 | 5.68 | 2.74 | 1.72
pTyr fixed | 3.27 | 1.99 | 2.21 | 1.72 | 3.26 | 18.2 | 6.04 | 3.04 | 2.78

STK16, construct: Full length, human (from UniProt O75716)
relative phosphorylation
Details | at +1 | at +2 | at +3 | at +4 | at -1 | at -2 | at -3 | at -4 | at -5
A fixed | 0.727 | 2.01 | 1.04 | 1 | 0.863 | 1.44 | 0.99 | 1.12 | 1.1
D fixed | 0.32 | 0.668 | 0.537 | 0.519 | 0.334 | 0.409 | 0.474 | 0.885 | 0.694
E fixed | 0.182 | 0.604 | 0.496 | 0.566 | 0.273 | 0.36 | 0.491 | 0.674 | 0.581
F fixed | 0.531 | 0.95 | 0.956 | 0.888 | 0.833 | 0.758 | 0.672 | 1.12 | 0.96
G fixed | 4.33 | 1.26 | 1.66 | 1.23 | 2.16 | 0.83 | 0.808 | 1.13 | 0.953
H fixed | 0.804 | 0.887 | 0.982 | 1.07 | 2.29 | 0.75 | 0.824 | 0.94 | 1.06
I fixed | 0.534 | 0.991 | 0.898 | 0.982 | 0.526 | 1.23 | 1.98 | 0.894 | 0.914
K fixed | 1.08 | 0.844 | 1.36 | 1.16 | 1.4 | 0.569 | 0.854 | 1.06 | 0.99
L fixed | 0.461 | 0.915 | 0.81 | 0.835 | 0.656 | 1.03 | 0.894 | 0.952 | 0.868
M fixed | 0.447 | 0.822 | 0.881 | 0.875 | 0.815 | 1.04 | 0.85 | 0.961 | 0.989
N fixed | 2.13 | 0.787 | 0.897 | 0.746 | 0.737 | 0.509 | 0.701 | 0.798 | 0.875
P fixed | 0.801 | 1.03 | 1.03 | 1.1 | 1.64 | 4.27 | 2.6 | 1.43 | 1.54
Q fixed | 0.522 | 1.19 | 0.974 | 0.999 | 0.71 | 0.676 | 0.829 | 0.849 | 0.96
R fixed | 2.08 | 1.06 | 1.73 | 1.31 | 1.19 | 0.959 | 0.963 | 1.11 | 1.49
V fixed | 0.518 | 1.06 | 0.922 | 0.845 | 0.677 | 0.88 | 1.5 | 0.963 | 0.796
W fixed | 0.999 | 0.849 | 0.853 | 1.59 | 0.813 | 0.601 | 0.74 | 1.09 | 1.13
Y fixed | 0.534 | 1.08 | 0.98 | 1.29 | 1.09 | 0.695 | 0.834 | 1.02 | 1.1
pThr fixed | 0.289 | 0.402 | 0.518 | 0.44 | 0.352 | 2.01 | 0.864 | 0.838 | 0.845
pTyr fixed | 0.242 | 0.36 | 0.605 | 0.544 | 0.276 | 0.401 | 0.468 | 0.658 | 0.65
